Kd, koff and kon data for two molecules are collected here from PMC9881579.

The target in experiment [1] is LHD206A. Nature of the experiment: BLI; biotinylated protomer on streptavidin biosensors, designed partner in solution; 25 °C; 10 mM HEPES pH 7.4, 150 mM NaCl, 3 mM EDTA, 0.05% Surfactant P20, 1 mg/ml BSA; steady-state fit, 1:1 model. (In BLI a coated tip is dipped into the sample, and binding shifts an interference pattern.)
Experiment [2] addresses LHD206A. Nature of the experiment: BLI; biotinylated protomer on streptavidin biosensors, designed partner in solution; 25 °C; 10 mM HEPES pH 7.4, 150 mM NaCl, 3 mM EDTA, 0.05% Surfactant P20, 1 mg/ml BSA; global kinetic fit, 1:1 model.
Experiment [3] deals with LHD206A, split luciferase construct. Nature of the experiment: split reporter (BiFC, NanoBiT); smBiT:lgBiT equilibrium binding in E. coli lysate; one component at 1 nM, the other titrated; overnight at room temperature; 20 mM sodium phosphate, 100 mM NaCl, pH 7.4, 0.05% Tween 20.

B1: LHD206B (designed binder)
chain: GRQEKVLKSIEETVRKMGVTMETHRSGNEVKVVIKGLHKSQQEQLLKDVLKTANKQGVNVHISFRGDTVTIRVRE
modifications: not checked
Usually Kd stands for a measure of binding affinity in units of concentration. A low value points to tighter binding. A word on the koff: it is the first-order rate constant of dissociation. Lower therefore signals a long-lived complex. The kon is the second-order rate constant of association. Take B1: the Kd in the experiment with LHD206A [1] is 8.4 nM. In the experiment with LHD206A [2], this molecule yielded a dissociation constant (Kd) of 2.8 nM, a koff of 0.00075 s⁻¹ and a kon of 270000 M⁻¹ s⁻¹.

B2: LHD206B, split luciferase construct (designed binder)
chain: GRQEKVLKSIEETVRKMGVTMETHRSGNEVKVVIKGLHKSQQEQLLKDVLKTANKQGVNVHISFRGDTVTIRVRE
modifications: here or on the partner: Strep-tag, sfGFP, GS-linker and split luciferase fragment left out; protomer taken from the unfused monovalent entry / Strep-tag, sfGFP, GS-linker and split luciferase fragment left out; protomer take
As to B2, in experiment [3], the Kd was found to be 11 nM. This counts as double-digit nanomolar.
